assay: soluble on expression in E. coli; label from the status in PepcDB or PDB records

| Sequence | soluble on expression in E. coli |
| --- | --- |
| MSLNKSVIGTKQMVVSPHYLASQAGNRILDKGGNAFDAAVAVSACLAVVYPHMTGLGGDSFWLTFHQETKAVKVYNGSGRSGKNVTRDVYKGKSAIPLRGIDSAITVPGMVDSWDAVLKEYGRLSLADVLEPARDYAQNGFPVSADQCRHTEKNIELLASTPYTADIFTRRGKAPVPGERFVQKELADSLNLIAEKGRSAFYEGDLAQRIVSHLQNNGSYMTIDDFKAHRGEWAAPVSSDYRGYSVYQAPPNSQGFTGLLTLNILENYDFTQIEHGSFEYYHVLVEALKKSFLDRDAVLTDPAFADIPLERLLDKRYAKQLAEEIGYLAIPAESRPVGSDTAYAAVIDADGNAVSFIQSLYFEFGSAVTAGDTGILLQNRGSFFSLDENHVNTLEPRKRTFHTLMPAMVCKGGKPKILYGTQGGEGQPQTQTAIITRMLDYGMHPQQAISEPRWVWGRTWGEEYEGLRVEGRFTDKTIQKLKDSGHLVEVVGDYDPLMGQAAAIKVDEEGFLQGGADPRGDGAAVGEGHHHHHH | not soluble |
| MESYIQNLFAERIGGKSFGKEDVIYKFEKIKRAKQAAKLKYPDMELIDMGVGEPDEMADESVVEVLCEEAKKHVNRGYSDNGVQALKDEIPIYLEKIFGVKDLDPVNEVVHSIGSKPALAYITSVFINPGDVTLMTVPGYPVTATHTKWYGGSVETLPLLEKNNFLPELDAISKEVRENAKILYLNYPNNPTGAQATKKFYKEAVDFAFENDLIVIQDAAYAALTYGDKPLSFLSVKDAKEVGVEIHSFSKAYNMTGWRLAFVAGNELIVRGFAAVKDNYDSGQFIPIQKAGIHCLRHPEITEKTRAKYERRLSKMVKILKEAGFNAKMPGGTFYLYVKAPIGTKDGAKFANAEEFSQFMIKEKLISTVPWDDAGNFVRMAACFEAFKDGEISIEEEDRILNEVKRRLTEVEFVFE | not soluble |
| MEFLLLDDRENLKLAIIRKLEQQYSFSERKDRLCKQLAISPYLLERNITEINADLQRFGLINEMEISEKNNEILLSQSLRISSSIIEEYYLKDSLEFNLLKTIFFHQFTSIKKYGEKHGMSRTVVYKIVDHIRKELGQYGIKLSKNLQLSGNEMAIRQYFTMLYYRIYKDSEELYNQTDLRAVNQLLAQLKGSYENITNFHLFKHYVLVALERTQRKANYFLSQEENPFAFDEESSIYQEIQSWINEVMKATHAEKNAEIQGIIGNLSVYQSELISEHLLSSHNEAITATKTLFFSYMPFTISDEEFYQEIVPIIYQHRFITPFIDITLRIMDLEFFQERYPIVFNSCRQFLFALDCSAFEFSKLSLFFDLLLVLSRLYDQRNEKSTINLYVNFTQGEKYTQFIKEQIKIFESFSIHFHSAIRPDTDLVVSDYLPKTLFSVKCLIWLAPPRASDWQNFGNEIVRINKELQQTKQRKSE | not soluble |
| VQLQQSGTELMKPGRSLKISCKTTGYIFSNYWIEWVKQRPGHGLEWIGKILPGGGSNTYNDKFKGKATFTADTSSNIAYMQLSSLTSEDSAVYYCARGEDYYAYWYVLDYWGQGTTVTVSSGGGGSDIELTQSPLSLPVSLGDQASISCRSSQSLVHSNGNTSLHWYLKKPGQSPKLLIYKVSTRFSGVPDRFSGSGSGTDFTLKISRVEAEDLGVYFCSQSTHVPFTFGSGTKLELK | soluble |
| MGSDKIHHHHHHMTEEINYFWLNCGYNRWNHNEPLVGQTALFESGAHFNPTQGYRAFKKAKAGDQVIFYQVQTDSGLLGIGEIISVQSGAQNKIRVEFKFKETLKPLTTDYLKRSETLDFRMSNMRETLFNQIRESEFELIVSLGKGKSKIPRYFLLAETEAFEPGKNYTIFTHTFNGIKRNGYHFYTQLEVGDNIIIYNKYQNQSVIGIGEVSKHIHEKPPIPGRTNSTAIEIFYEKDIKPISLGHLNKHPKLKNLYFLQENAKQSIASMSQAQYDAILDMSMNNGIKHPFETVKKAELSTQNAEDDSLKPFVLLVVEQKGEGLKAAEELLQKTNANPVITSGHPDFTEDMLYGKYLPNESGALYYREGFITHLMPKKDKSYLVIDNFNRIDVDIFQTYINVLEGYEVTLPRYNKDGSMIKWSKNKDSFYHFNPNWHIVGITYDSIEKIKQKYSSQFLKYTRIVKVNHD | not soluble |
| MGSDKIHHHHHHMFSKKVKWEETMTYKSIRALERGIDVLQYLNTVKGAAPPEIAENVNLPRPTVHRILETLSELNLVYRSQLGDEYRLSSGVQRLAGNRSSVRLNWIDEIALPALLELTSEIIWPSDIAVCHKAAMIIQGTTHRISPMSCDVGMVGNRRSMLMSPLGRAYLSHCPDDELKSILCALNASSASEDKGARDRAFIKEIIETGRRDGVSACNERPHPRCASLAAPIRLNGKVLACMNVVWRANMLTIEDAMDQIRDPLLATRDRIEAQLHEQFARPALGSTSFPETYTLRTGTRDRLPHSLALA | not soluble |
| GMSQATAKVNREVQAFLQDLKGKTIDHVFFVACGGSSAIMYPSKYVFDRESKSINSDLYSANEFIQRNPVQLGEKSLVILCSHSGNTPETVKAAAFARGKGALTIAMTFKPESPLAQEAQYVAQYDWGDEALAINTNYGVLYQIVFGTLQVLENNTKFEQAIEGLDQLQAVYEKALKQEADNAKQFAKAHEKESIIYTMASGANYGVAYSYSICILMEMQWIHSHAIHAGEYFHGPFEIIDESVPFIILLGLDETRPLEERALTFSKKYGKKLTVLDAASYDFTAIDDSVKGYLAPLVLNRVLRSYADELAEERNHPLSHRRYMWKVEY | soluble |
| MSLADLFASPDDAAAGGAPDTAPLADRLRPRTLGDVVGQEHLTGPDGAIGRMVAAGRLSSIIFWGPPGTGKTTISRLLAHAVGMRFEPISAVFSGVADLKKVFAAAKDHARHGEKTLLFVDEIHRFNRAQQDSFLPFVENGTVTLVGATTENPSFELNAALLSRAQVLILRRLDAAALEQLLDRAEGLMERPLPLDPAAREALLASADGDGRFLLNQVETLYAIDIPEPLDPAGLSALLHRRVAVYDKDREGHYNLISALHKSLRGSDPQAALYYLARMLTAGEEPLYVLRRLVRFATEDIGLADPQAVVQCLAAKDAYDFLGSPEGELAIVQACLYCATAPKSNAAYMAMKASFRSARETGSLMPPMNIVNAPTKLMKQVGYGKNYQYDHDAAEGFSGANYWPEEMEAQTFYAPTDRGFEARVAERMAYWDRLRAERGEGHHHHHH | soluble |
| MASMTGGQQMGRGSSTSLYKKAGLMPSPMEDIEEILITEEQLKAKVKELGEMITRDYEGKDLVLIGVLKGAIMFMSGLSRAIDLPLSIDFLAVSSYGSSTKSSGIVKIIKDHDIDIEGKDVLIVEDIIDSGLTLAYLRETLLGRKPRSLKICTILDKPERREADVKVDYCGFKIPDKFVVGYGLDYAEKYRNLPFIGVLKPELYK | soluble |
| MSLANGVWSLQPLADMSAAEFRDWQVLLENRTGVVLNEQRRTFLQTSLTARMRELGIGDYHSYYRQVTDGPRGAVEWAILLDRLTVQETRFFRHPPSFELLERYLGERLGREGMPRPWALWSVGCSSGEEPYSMAMCAAQALRGWQRGDFFGVTGTDISLHALQRARAANYPARKLEQLPAEMVERYCERQADGSFSVKTILTGRVCCARLNVLDLAKAPWSGMDVIFCQNLLIYFRRWRRREILNRLAERLAPGGLLVIGVGEVVDWSHPELEPVADERVLAFTRKGEGHHHHHH | soluble |
| MTIKLVATDMDGTFLDGNGRFDMDRLKSLLVSYKEKGIYFAVASGRGFLSLEKLFAGVRDDIIFIAENGSLVEYQGQDLYEATMSRDFYLATFEKLKTSPYVDINKLLLTGKKGSYVLDTVDETYLKVSQHYNENIQKVASLEDITDDIFKFTTNFTEETLEDGEAWVNENVPGVKAMTTGFESIDIVLDYVDKGVAIVELVKKLGITMDQVMAFGDNLNDLHMMQVVGHPVAPENARPEILELAKTVIGHHKERSVIAYMEGL | not soluble |
| MSLTTSHFIPFPREMVWDWHTRKGAVARLTPPFIPLNPITQAERLADGTTIFSLPAGLKWVARHDLSGFLNGSRFTDVCLTAPVKALANWRHVHNFVDQDGGTLITDSVSTRLPASTLTGMFAYRQTQLIEDLKFLSRTSTLFDGSPLTVAITGSRGLVGRALTAQLQTGGHEVIQLVRKEPKPGKRFWDPLNPASDLLDGADVLVHLAGEPIFGRFNDSHKEAIRESRVLPTKFLAELVAESTQCTTMISASAVGFYGHDRGDEILTEESESGDDFLAEVCRDWEHATAPASDAGKRVAFIRTGVALSGRGGMLPLLKTLFSTGLGGKFGDGTSWFSWIAIDDLTDIYYRAIVDAQISGPINAVAPNPVSNADMTKILATSMHRPAFIQIPSLGPKILLGSQGAEELALASQRTAPAALENLSHTFRYTDIGAAIAHELGYEQLADFAQQQEIEAERKQERAELKAAKKIAKKAPVLEESPTNLEDPEEVEQSILSSILNFRRKRNDLEHHHHHH | soluble |
| MTSNKQLINERDHAESALADMYFAATGDEPEWSNWFGFSDAVDAVVDRIADLEAKQPSPVVPEGLVKAVRFYEQVKRENPPVETEAWKDAIDWVLKESCQAVNIDTNGD | soluble |
| AIAHAASFRDCKAWQSDGLPLSSSSNEACKLYDAILSQYVTWRNDETLGGIEGCITSIKAADPDFVMGHVISTGLELVGTGSSVLRDERLASAVRRTVELADTQQLTSREKNHVKAVQLFSKGSVHRNLTFMFNG | soluble |
| MQRIRIIDSHTGGEPTRLVIGGFPDLGQGDMAERRRLLGERHDAWRAACILEPRGSDVLVGALLCAPVDPEACAGVIFFNNSGYLGMCGHGTIGLVASLAHLGRIGPGVHRIETPVGEVEATLHEDGSVSVRNVPAYRYRRQVSVEVPGIGRVSGDIAWGGNWFFLVAGHGQRLAGDNLDALTAYTVAVQQALDDQDIRGEDGGAIDHIELFADDPHADSRNFVLCPGKAYDRSPCGTGTSAKLACLAADGKLLPGQPWRQASVIGSQFEGRYEWLDGQPGGPIVPTIRGRAHVSAEATLLLADDDPFAWGIRR | soluble |
| MTERKPEVIITYCTQCQWLLRAAWLAQELLSTFSDDLGKVSLEPATGGAFRITCDGVQIWERKADGGFPEAKVLKQRVRDQIDPERDLGHNDRTQLEHHHHHH | soluble |
| MSLMKFIIKLFPEITIKSQSVRLRFIKILTGNIRNVLKHYDETLAVVRHWDNIEVRAKDENQRLAIRDALTRIPGIHHILEVEDVPFTDMHDIFEKALVQYRDQLEGKTFCVRVKRRGKHDFSSIDVERYVGGGLNQHIESARVKLTNPDVTVHLEVEDDRLLLIKGRYEGIGGFPIGTQEDVLSLISGGFDSGVSSYMLMRRGCRVHYCFFNLGGAAHEIGVRQVAHYLWNRFGSSHRVRFVAINFEPVVGEILEKIDDGQMGVILKRMMVRAASKVAERYGVQALVTGEALGQVSSQTLTNLRLIDNVSDTLILRPLISYDKEHIINLARQIGTEDFARTMPEYCGVISKSPTVKAVKSKIEAEEEKFDFSILDKVVEEANNVDIREIAQQTEQEVVEVETVNGFGPNDVILDIRSIDEQEDKPLKVEGIDVVSLPFYKLSTKFGDLDQNKTWLLWCERGVMSRLQALYLREQGFNNVKVYRPEGGSHHHHHH | soluble |
| MVEVESDSVAERDRSSFLAGHDAIRLAKSCVDSPPERWYAALYQVYADLTKLRCWSNVEVVYSDSATFPTGLLGPLFEEDSMVQELHSAQCILGSERACFHVRCCIVGSPPSGRAINALSPQSETRTEERIITSRREPEVVIAVPMHAMLKLSNLDQALRMSSHIEGIVKNRHVADSSASTHSTDRQAGSRKSSVIFGFVDEDTTTAYYRIREGACESNDRREFSTDDIASCLAQERT | not soluble |
| MEKRNEEHSRKKFIEEQLNALKHEERVLNETRTKLQQQKWHLLQENDKIKEKIRVRDAAAGAGTGTGAPPE | not soluble |
| MDLQSTPLKGVVRSSEDGLFYLFPIQSLSTLQEMKGHLTCAIDVLSNPDESDVEKRLDAVRTLNSLVAALSVNDGDHYDVIDTAFEEIRE | not soluble |

Reference: the DeepSol protein solubility set
